Source: paper PMC6450059

Key:
[1] = biological target: PmScsCΔLinker (Proteus mirabilis); experiment: SAXS; PmScsCΔLinker, concentration series 0.1-10.0 mg ml^-1 in 10 mM HEPES pH 7.4, 150 mM NaCl, 283 K; linear combination of monomer, dimer and trimer scattering curves, global (common K d and K t) and independent optimization; K d: monomers and dimer; K t: monomer, dimer and trimer
[2] = biological target: PmScsCΔLinker (Proteus mirabilis); experiment: crystal structure; PmScsCΔLinker 40 mg ml^-1 in 10 mM HEPES pH 7.4, 150 mM NaCl; 0.1 M HEPES pH 7, 32%(v/v) Jeffamine M-600; 293 K; space group H32, one protomer in the asymmetric unit, trimer through crystallographic symmetry
[3] = biological target: Suppressor of copper sensitivity protein C from Proteus mirabilis (PmScsC) (Proteus mirabilis); experiment: SAXS; native PmScsC, concentration series 0.1-10.0 mg ml^-1 in 10 mM HEPES pH 7.4, 150 mM NaCl, 283 K; linear combination of monomer and trimer scattering curves, global (common K t) and independent optimization; K t: monomers and trimer

**Q.** What does the source list for PmScsCΔLinker (enzyme)?
**A.** K t (equilibrium constant for trimer formation, from monomer and dimer) [1]: 730 µM; Kd [1]: 210 µM; dimer fraction at 0.1 mg/ml (global optimization) [1]: 0.03; dimer fraction at 0.1 mg/ml (independent optimization) [1]: 0; dimer fraction at 0.5 mg/ml (global optimization) [1]: 0.12; dimer fraction at 0.5 mg/ml (independent optimization) [1]: 0; dimer fraction at 2.0 mg/ml (global optimization) [1]: 0.27; dimer fraction at 2.0 mg/ml (independent optimization) [1]: 0.33; dimer fraction at 5.0 mg/ml (global optimization) [1]: 0.41; dimer fraction at 5.0 mg/ml (independent optimization) [1]: 0.37; dimer fraction at 10.0 mg/ml (global optimization) [1]: 0.48; dimer fraction at 10.0 mg/ml (independent optimization) [1]: 0.49; monomer fraction at 0.1 mg/ml (global optimization) [1]: 0.97; monomer fraction at 0.1 mg/ml (independent optimization) [1]: 1; monomer fraction at 0.5 mg/ml (global optimization) [1]: 0.88; monomer fraction at 0.5 mg/ml (independent optimization) [1]: 0.94; monomer fraction at 2.0 mg/ml (global optimization) [1]: 0.71; monomer fraction at 2.0 mg/ml (independent optimization) [1]: 0.67; monomer fraction at 5.0 mg/ml (global optimization) [1]: 0.53; monomer fraction at 5.0 mg/ml (independent optimization) [1]: 0.55; monomer fraction at 10.0 mg/ml (global optimization) [1]: 0.4; monomer fraction at 10.0 mg/ml (independent optimization) [1]: 0.37; trimer fraction at 0.1 mg/ml (global optimization) [1]: 0; trimer fraction at 0.1 mg/ml (independent optimization) [1]: 0; trimer fraction at 0.5 mg/ml (global optimization) [1]: 0; trimer fraction at 0.5 mg/ml (independent optimization) [1]: 0.06; trimer fraction at 2.0 mg/ml (global optimization) [1]: 0.02; trimer fraction at 2.0 mg/ml (independent optimization) [1]: 0; trimer fraction at 5.0 mg/ml (global optimization) [1]: 0.07; trimer fraction at 5.0 mg/ml (independent optimization) [1]: 0.08; trimer fraction at 10.0 mg/ml (global optimization) [1]: 0.12; trimer fraction at 10.0 mg/ml (independent optimization) [1]: 0.1; stoichiometry N [2]: 3

**Q.** Which results are given for “Suppressor of copper sensitivity protein C from Proteus mirabilis (PmScsC) (enzyme)”?
**A.** K t (equilibrium constant for trimer formation, monomers and trimer) [3]: 6.3e-18 M^2; monomer fraction at 0.1 mg/ml (global optimization) [3]: 0.01; monomer fraction at 0.1 mg/ml (independent optimization) [3]: 0.21; monomer fraction at 0.5 mg/ml (global optimization) [3]: 0; monomer fraction at 0.5 mg/ml (independent optimization) [3]: 0.04; monomer fraction at 2.0 mg/ml (global optimization) [3]: 0; monomer fraction at 2.0 mg/ml (independent optimization) [3]: 0; monomer fraction at 5.0 mg/ml (global optimization) [3]: 0; monomer fraction at 5.0 mg/ml (independent optimization) [3]: 0; monomer fraction at 10.0 mg/ml (global optimization) [3]: 0; monomer fraction at 10.0 mg/ml (independent optimization) [3]: 0; stoichiometry N [3]: 3; trimer fraction at 0.1 mg/ml (global optimization) [3]: 0.99; trimer fraction at 0.1 mg/ml (independent optimization) [3]: 0.79; trimer fraction at 0.5 mg/ml (global optimization) [3]: 1; trimer fraction at 0.5 mg/ml (independent optimization) [3]: 0.96; trimer fraction at 2.0 mg/ml (global optimization) [3]: 1; trimer fraction at 2.0 mg/ml (independent optimization) [3]: 1; trimer fraction at 5.0 mg/ml (global optimization) [3]: 1; trimer fraction at 5.0 mg/ml (independent optimization) [3]: 1; trimer fraction at 10.0 mg/ml (global optimization) [3]: 1; trimer fraction at 10.0 mg/ml (independent optimization) [3]: 1
